Test results taken from patent publication EP4782466A1, “FUSION PROTEIN FOR INACTIVATING CORONAVIRUS AND USE THEREOF” (priority 2023, dated 2025).

Assays:
Assay in all cases: cell-based or functional assay
[1] = biological target: S protein of SARS-CoV (SARS-CoV) (UniProt P59594)
[2] = biological target: S protein of bat-derived SARS-CoV-like coronavirus Rs3367 (bat-derived SARS-CoV-like coronavirus Rs3367)
[3] = biological target: S protein of bat-derived SARS-CoV-like coronavirus WIV1 (bat-derived SARS-CoV-like coronavirus WIV1)
[4] = biological target: S protein of Human Coronavirus NL63 (Human Coronavirus NL63) (UniProt Q6Q1S2)
[5] = biological target: S protein of SARS-CoV-2 prototype strain (SARS-CoV-2 prototype) (UniProt P0DTC2)

“ACE2 protein alone (ACE2 peptidase domain alone) (from UniProt Q9BYF1 18-615) (receptor)” showed an EC50, inactivation of pseudovirus (Caco-2, luciferase) [1] of 1240 nM, an IC50, inhibition of pseudovirus infection (Caco-2, luciferase) [1] of 9.5 nM and an EC50, inactivation of pseudovirus (Caco-2, luciferase) [2] of 274 nM. For the same substance, the IC50, inhibition of pseudovirus infection (Caco-2, luciferase) [2] was 249 nM, the EC50, inactivation of pseudovirus (Caco-2, luciferase) [3] was 758 nM and the IC50, inhibition of pseudovirus infection (Caco-2, luciferase) [3] was 239 nM.

Substance “AL5E protein (ACE2-linker-EK1 fusion protein with (GGGGS)5 linker)” has an EC50, inactivation of pseudovirus (Caco-2, luciferase) [4] of 1.08 nM, a Fold enhancement in activity of AL5E over ACE2 (EC50, pseudovirus inactivation) [4] of 540 fold and a Fold enhancement in activity of AL5E over ACE2 (IC50, pseudovirus inhibition) [4] of 34.4 fold. It also gave an IC50, inhibition of pseudovirus infection (Caco-2, luciferase) [4] of 0.83 nM, an EC50, inactivation of pseudovirus (Caco-2, luciferase) [1] of 18.1 nM and a Fold enhancement in activity of AL5E over ACE2 (EC50, pseudovirus inactivation) [1] of 68.1 fold. It also gave a Fold enhancement in activity of AL5E over ACE2 (IC50, pseudovirus inhibition) [1] of 13.8 fold, an IC50, inhibition of pseudovirus infection (Caco-2, luciferase) [1] of 0.69 nM and an EC50, inactivation of pseudovirus (Caco-2, luciferase) [5] of 5.1 nM. It also gave a Fold enhancement of AL5E over ACE2 (EC50, pseudovirus inactivation) [5] of 22.2 fold, a Fold enhancement of AL5E over ACE2 (IC50, pseudovirus inhibition) [5] of 26.9 fold and an IC50, inhibition of pseudovirus infection (Caco-2, luciferase) [5] of 0.26 nM. For the same substance, the EC50, inactivation of pseudovirus (Caco-2, luciferase) [2] was 10.7 nM, the Fold enhancement in activity of AL5E over ACE2 (EC50, pseudovirus inactivation) [2] was 25.6 fold and the Fold enhancement in activity of AL5E over ACE2 (IC50, pseudovirus inhibition) [2] was 42.2 fold. For the same substance, the IC50, inhibition of pseudovirus infection (Caco-2, luciferase) [2] was 5.9 nM, the EC50, inactivation of pseudovirus (Caco-2, luciferase) [3] was 3.54 nM and the Fold enhancement in activity of AL5E over ACE2 (EC50, pseudovirus inactivation) [3] was 214 fold. For the same substance, the Fold enhancement in activity of AL5E over ACE2 (IC50, pseudovirus inhibition) [3] was 71.2 fold and the IC50, inhibition of pseudovirus infection (Caco-2, luciferase) [3] was 3.36 nM.

Substance “AL6E protein (ACE2-linker-EK1 fusion protein with (GGGGS)6 linker)” has an IC50, inhibition of pseudovirus infection (Caco-2, luciferase) [5] of 0.23 nM.

Work on “AL2E protein (ACE2-linker-EK1 fusion protein with (GGGGS)2 linker) (from UniProt Q9BYF1 18-615)” yielded an IC50, inhibition of pseudovirus infection (Caco-2, luciferase) [5] of 0.6 nM.

Work on “AL7E protein (ACE2-linker-EK1 fusion protein with (GGGGS)7 linker)” yielded an IC50, inhibition of pseudovirus infection (Caco-2, luciferase) [5] of 0.37 nM.

Substance EK1 polypeptide has an IC50, inhibition of pseudovirus infection (Caco-2, luciferase) [4] of 1070 nM, an IC50, inhibition of pseudovirus infection (Caco-2, luciferase) [1] of 841 nM and an IC50, inhibition of pseudovirus infection (Caco-2, luciferase) [5] of 186 nM. For the same substance, the IC50, inhibition of pseudovirus infection (Caco-2, luciferase) [2] was 1340 nM and the IC50, inhibition of pseudovirus infection (Caco-2, luciferase) [3] was 2450 nM.
